Values of other authors in article PMC2928749.

Biological target: hHR23B Ubl (Homo sapiens) (UniProt P54727)
Sequence (P54727 1-79): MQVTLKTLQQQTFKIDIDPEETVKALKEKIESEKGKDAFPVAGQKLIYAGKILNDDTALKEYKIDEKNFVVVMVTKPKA

Ataxin-3 Josephin, sequence (P54252 1-183): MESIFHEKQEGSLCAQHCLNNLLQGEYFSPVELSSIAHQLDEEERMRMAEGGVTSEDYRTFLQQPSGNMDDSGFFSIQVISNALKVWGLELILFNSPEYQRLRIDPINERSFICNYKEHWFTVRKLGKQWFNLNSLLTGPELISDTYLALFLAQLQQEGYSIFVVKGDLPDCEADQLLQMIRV

Kd: 12 µM
Substance: Ataxin-3 Josephin (from UniProt P54252)
